Tested on: alpha-lactalbumin
Test: Monolith mediated proteolysis with covalently grafted proteinase K, HPLC
Format: biochemical
Conditions: 65 °C for 2 hrs plus 30 minutes; HPLC (Figure 4)
Description: 160 mg/mL EDAC stock was dissolved in dry DMSO. 35 µL of this stock was added to 15 µL of 200 mM MES pH 7.0 and 20 µL 10mg/mL Proteinase K in PBS. The solution was added to a 20 mg disc carboxy monolith polymeric matrix (1:2:1 TEGDMA:EGDMA:HEMA plus 2.0% MAA). The disc was incubated for 1 hr at room temperature. The reaction was then quenched with 5 µL of 30 mg/mL glycine, pH 7.0 for 15 minutes at room temperature. The disc was then washed 3x in 1x PBS and held in 1X PBS for 4 days at 4 °C.
Alpha-lactalbumin substrate was dissolved at 10 mg/mL in 1x PBS. The proteinase K coupled disc was cut into equal 8 pie-shaped pieces. For each assay, one pie piece was placed point side down into a 0.5 mL microfuge tube. For each tube, 27 µL 10mg/mL lactalbumin solution or 1X PBS, 3 µL 5mM CaSO4, was added. The tubes were closed and incubated at 65 °C for 2 hrs. An additional 50 µL deionized distilled water, was added, the tubes closed, and incubated at 65 °C for an additional 30 minutes.

degradation of alpha-lactalbumin: fully degraded
B1: proteinase K: Proteinase K covalently grafted with EDAC to carboxy monolith disc (1:2:1 TEGDMA:EGDMA:HEMA plus 2.0% MAA) (conjugate, UniProt P06873 106-384, looked up)
Proteinase K: AAQTNAPWGLARISSTSPGTSTYYYDESAGQGSCVYVIDTGIEASHPEFEGRAQMVKTYYYSSRDGNGHGTHCAGTVGSRTYGVAKKTQLFGVKVLDDNGSGQYSTIIAGMDFVASDKNNRNCPKGVVASLSLGGGYSSSVNSAAARLQSSGVMVAVAAGNNNADARNYSPASEPSVCTVGASDRYDRRSSFSNYGSVLDIFGPGTSILSTWIGGSTRSISGTSMATPHVAGLAAYLMTLGKTTAASACRYIADTANKGDLSNIPFGTVNLLAYNNYQA
modifications: EDAC-grafted to carboxy monolith disc

Source: EP3221371B1, “MONOLITHS” (Monolythix, Inc., priority 2014, dated 2016)
